Source: article PMC8849274 (Oncotarget, 2022)
Read-outs that look alike come from different tables or passages of the source.

Columns and labels:
Format in all cases: in vivo
[1] = Biodistribution in mice bearing CaSki xenografts; details: female, athymic nude, mouse, iv, total radioactivity; for tissue uptake at 1 h: 1 h p.i.; for tissue uptake at 24 h: 24 h p.i.
From the text: (§1) Animals were supplied by Charles River Laboratories (Wilmington, MA, USA), and were handled in compliance with the Guidelines for Care and Use of Research Animals established by the Division of Comparative Medicine and the Animal Studies Committee of Washington University School of Medicine under protocol #20–0214. Female athymic nude mice were inoculated on the right flank with 10 × 10^6 CaSki or 5 × 10^6 BxPC-3 cells. Tumors were allowed to grow until they approached approximately 100 mm^3 in volume. Radiolabeled peptides were diluted in saline to a dose of 0.37 MBq (10 μCi) per 100 μl. […] For blocking experiments, non-PEGylated peptide (100 μg in 100 μL saline) was injected ten minutes before radiotracer. Blood, lung, liver, spleen, kidney, muscle, heart, bone, and tumor were harvested. The amount of radioactivity in each organ was determined by gamma counting, and the percent injected dose per gram of tissue (% ID/g) was calculated.

[2] = Biodistribution in mice bearing BxPC-3 xenografts; details: female, athymic nude, mouse, iv, total radioactivity, BxPC-3 tumor-bearing mice, 1 h p.i.
From the text: as §1

[3] = Small animal PET/CT imaging, BxPC-3 tumors; details: female, mouse, tumor (BxPC-3 xenograft), iv, total radioactivity, athymic nude mice bearing BxPC-3 tumors, 3.7 MBq i.v., without blocking, n = 3, read-out: SUVmax of tumors
Experimental: BxPC-3 cells (5 × 10^6) were inoculated in the right shoulder of female athymic nude mice 3–4 weeks before PET imaging sessions. All the experiments involving animals followed the Guidelines for Care and Use of Research Animals established by the Division of Comparative Medicine and the Animal Studies Committee of Washington University School of Medicine under protocol #20–0214. […] Mice were imaged with CT followed by static PET scans at 1, 4, and 24 h after tracer administration on an Inveon small animal PET/CT scanner (Siemens Medical Solutions, Malvern, PA, USA). Static images were collected for 20 min and reconstructed with the maximum a posteriori (MAP) reconstruction algorithm using the Inveon Reseach Workstation image display software (Siemens). Regions of interest (ROI) were selected based on co-registered anatomical CT images, and the associated radioactivity was measured using the Inveon software. The maximum standard uptake value (SUV) was calculated as the highest regional radioactivity concentration (nCi/cc) × animal weight (g)/decay-corrected amount of injected dose (nCi).

## CC(C)C[C@H](NC(=O)[C@H](CC(=O)O)NC(=O)CNC(=O)[C@H](CCCNC(=N)N)NC(=O)[C@H](CC(C)C)NC(=O)[C@H](CC(N)=O)NC(=O)[C@@H]1CCCN1C(=O)[C@@H](NC(=O)[C@H](C)NC(=O)[C@H](CC(N)=O)NC(=O)CCOCCOCCOCCOCCOCCOCCOCCOCCOCCOCCOCCOCCOCCOCCOCCOCCOCCOCCOCCOCCOCCOCCOCCOCCOCCOCCOCCOCCNC(=O)CN1CCN(CC(=O)O)CCN(CC(=O)O)CCN(CC(=O)O)CC1)C(C)C)C(=O)N[C@@H](CCC(N)=O)C(=O)N[C@H](C(=O)N[C@@H](CC(C)C)C(=O)N[C@@H](C)C(=O)N[C@@H](CCC(N)=O)C(=O)N[C@@H](CCCCN)C(=O)N[C@H](C(=O)N[C@@H](C)C(=O)N[C@@H](CCCNC(=N)N)C(=O)N[C@H](C(=O)NCCOCCOCCOCCOCCOCCOCCOCCOCCOCCOCCOCCOCCOCCOCCOCCOCCOCCOCCOCCOCCOCCOCCOCCOCCOCCOCCOCCOCCC(N)=O)[C@@H](C)O)C(C)C)C(C)C [[^64Cu]Cu-DOTA-(PEG28)2-A20FMDV2, metal not drawn]
[1]; blood, CaSki tumor-bearing mice, 0.37 MBq i.v., gamma counting, mean, n = 4, read-out: Uptake in Blood
  tissue uptake at 1 h: 0.22 %ID/g
[1]; blood, CaSki tumor-bearing mice, 0.37 MBq i.v., read-out: Radioactivity remaining in the blood
  tissue uptake at 24 h: 0.26 ± 0.07 %ID/g
[1]; blood, CaSki tumor-bearing mice, non-PEGylated A20FMDV2 100 μg injected 10 min before radiotracer, read-out: Uptake in Blood, 1 h Block
  tissue uptake at 1 h: 0.13 %ID/g
[1]; bone, CaSki tumor-bearing mice, 0.37 MBq i.v., gamma counting, mean, n = 4, read-out: Uptake in Bone
  tissue uptake at 1 h: 0.62 %ID/g
[1]; bone, CaSki tumor-bearing mice, non-PEGylated A20FMDV2 100 μg injected 10 min before radiotracer, read-out: Uptake in Bone, 1 h Block
  tissue uptake at 1 h: 0.27 %ID/g
[1]; heart, CaSki tumor-bearing mice, 0.37 MBq i.v., gamma counting, mean, n = 4, read-out: Uptake in Heart
  tissue uptake at 1 h: 0.71 %ID/g
[1]; heart, CaSki tumor-bearing mice, non-PEGylated A20FMDV2 100 μg injected 10 min before radiotracer, read-out: Uptake in Heart, 1 h Block
  tissue uptake at 1 h: 0.58 %ID/g
[1]; kidney, CaSki tumor-bearing mice, 0.37 MBq i.v., gamma counting, mean, n = 4, read-out: Uptake in Kidney
  tissue uptake at 1 h: 42.7 ± 4.03 %ID/g
[1]; kidney, CaSki tumor-bearing mice, 0.37 MBq i.v., 4 h p.i.
  tissue uptake at 4 h: 37 ± 10.6 %ID/g
[1]; kidney, CaSki tumor-bearing mice, 0.37 MBq i.v., read-out: Uptake in Kidney
  tissue uptake at 24 h: 21 ± 4.67 %ID/g
[1]; kidney, CaSki tumor-bearing mice, non-PEGylated A20FMDV2 100 μg injected 10 min before radiotracer, read-out: Uptake in Kidney, 1 h Block
  tissue uptake at 1 h: 35.5 %ID/g
[1]; liver, CaSki tumor-bearing mice, 0.37 MBq i.v., gamma counting, mean, n = 4, read-out: Uptake in Liver
  tissue uptake at 1 h: 1.04 %ID/g
[1]; liver, CaSki tumor-bearing mice, non-PEGylated A20FMDV2 100 μg injected 10 min before radiotracer, read-out: Uptake in Liver, 1 h Block
  tissue uptake at 1 h: 0.94 %ID/g
[1]; lung, CaSki tumor-bearing mice, 0.37 MBq i.v., gamma counting, mean, n = 4, read-out: Uptake in Lung
  tissue uptake at 1 h: 1.37 %ID/g
[1]; lung, CaSki tumor-bearing mice, non-PEGylated A20FMDV2 100 μg injected 10 min before radiotracer, read-out: Uptake in Lung, 1 h Block
  tissue uptake at 1 h: 1.19 %ID/g
[1]; muscle, CaSki tumor-bearing mice, 0.37 MBq i.v., gamma counting, mean, n = 4, read-out: Uptake in Muscle
  tissue uptake at 1 h: 0.73 %ID/g
[1]; muscle, CaSki tumor-bearing mice, non-PEGylated A20FMDV2 100 μg injected 10 min before radiotracer, read-out: Uptake in Muscle, 1 h Block
  tissue uptake at 1 h: 0.51 %ID/g
[1]; spleen, CaSki tumor-bearing mice, 0.37 MBq i.v., gamma counting, mean, n = 4, read-out: Uptake in Spleen
  tissue uptake at 1 h: 0.17 %ID/g
[1]; spleen, CaSki tumor-bearing mice, non-PEGylated A20FMDV2 100 μg injected 10 min before radiotracer, read-out: Uptake in Spleen, 1 h Block
  tissue uptake at 1 h: 0.13 %ID/g
[1]; tumor (CaSki xenograft), 0.37 MBq i.v., gamma counting, mean, n = 4, read-out: Tumor Uptake
  tissue uptake at 1 h: 0.95 ± 0.29 %ID/g
[1]; tumor (CaSki xenograft), non-PEGylated A20FMDV2 100 μg injected 10 min before radiotracer, read-out: Tumor uptake, 1 h Block
  tissue uptake at 1 h: 0.65 ± 0.17 %ID/g
[2]; blood, 0.37 MBq i.v., gamma counting, mean, n = 4, read-out: Uptake in Blood
  tissue uptake at 1 h: 0.28 %ID/g
[2]; blood, non-PEGylated A20FMDV2 100 μg injected 10 min before radiotracer, read-out: Uptake in Blood, 1 h Block
  tissue uptake at 1 h: 0.24 %ID/g
[2]; bone, 0.37 MBq i.v., gamma counting, mean, n = 4, read-out: Uptake in Bone
  tissue uptake at 1 h: 0.25 %ID/g
[2]; bone, non-PEGylated A20FMDV2 100 μg injected 10 min before radiotracer, read-out: Uptake in Bone, 1 h Block
  tissue uptake at 1 h: 0.28 %ID/g
[2]; heart, 0.37 MBq i.v., gamma counting, mean, n = 4, read-out: Uptake in Heart
  tissue uptake at 1 h: 1.01 %ID/g
[2]; heart, non-PEGylated A20FMDV2 100 μg injected 10 min before radiotracer, read-out: Uptake in Heart, 1 h Block
  tissue uptake at 1 h: 0.34 %ID/g
[2]; 0.37 MBq i.v., gamma counting, mean, n = 4, read-out: Tumor Uptake
  tissue uptake at 1 h: 2.12 ± 0.83 %ID/g
[2]; kidney, 0.37 MBq i.v., gamma counting, mean, n = 4, read-out: Uptake in Kidney
  tissue uptake at 1 h: 38 %ID/g
[2]; kidney, non-PEGylated A20FMDV2 100 μg injected 10 min before radiotracer, read-out: Uptake in Kidney, 1 h Block
  tissue uptake at 1 h: 27.6 %ID/g
[2]; liver, 0.37 MBq i.v., gamma counting, mean, n = 4, read-out: Uptake in Liver
  tissue uptake at 1 h: 2.79 %ID/g
[2]; liver, non-PEGylated A20FMDV2 100 μg injected 10 min before radiotracer, read-out: Uptake in Liver, 1 h Block
  tissue uptake at 1 h: 2.59 %ID/g
[2]; lung, 0.37 MBq i.v., gamma counting, mean, n = 4, read-out: Uptake in Lung
  tissue uptake at 1 h: 1.73 %ID/g
[2]; lung, non-PEGylated A20FMDV2 100 μg injected 10 min before radiotracer, read-out: Uptake in Lung, 1 h Block
  tissue uptake at 1 h: 1.14 %ID/g
[2]; muscle, 0.37 MBq i.v., gamma counting, mean, n = 4, read-out: Uptake in Muscle
  tissue uptake at 1 h: 0.62 %ID/g
[2]; muscle, non-PEGylated A20FMDV2 100 μg injected 10 min before radiotracer, read-out: Uptake in Muscle, 1 h Block
  tissue uptake at 1 h: 0.18 %ID/g
[2]; spleen, 0.37 MBq i.v., gamma counting, mean, n = 4, read-out: Uptake in Spleen
  tissue uptake at 1 h: 0.3 %ID/g
[2]; spleen, non-PEGylated A20FMDV2 100 μg injected 10 min before radiotracer, read-out: Uptake in Spleen, 1 h Block
  tissue uptake at 1 h: 0.34 %ID/g
[2]; tumor (BxPC-3 xenograft), non-PEGylated A20FMDV2 100 μg injected 10 min before radiotracer, read-out: Tumor uptake, 1 h Block
  tissue uptake at 1 h: 0.71 ± 0.16 %ID/g
[3]; PET at 1 h
  SUV at 1 h: 0.44 ± 0.02 SUV
[3]; PET at 4 h
  SUV at 4 h: 0.57 ± 0.15 SUV
[3]; PET at 24 h
  SUV at 24 h: 0.69 ± 0.09 SUV
